The text below walks through data of patent US20080213836A1.

For assay [1], the target named is Medaka EP-2 serine protease domain (Oryzias latipes (Japanese Medaka)). Briefly: cell-based or functional assay.
In assay [2] the target is Medaka EP-1 serine protease domain (wild-type) (Oryzias latipes (Japanese Medaka)). Briefly: cell-based or functional assay.
Sequence of Medaka EP-1 serine protease domain (wild-type) (Oryzias latipes (Japanese Medaka)) (chain, as listed by the source limits assumed): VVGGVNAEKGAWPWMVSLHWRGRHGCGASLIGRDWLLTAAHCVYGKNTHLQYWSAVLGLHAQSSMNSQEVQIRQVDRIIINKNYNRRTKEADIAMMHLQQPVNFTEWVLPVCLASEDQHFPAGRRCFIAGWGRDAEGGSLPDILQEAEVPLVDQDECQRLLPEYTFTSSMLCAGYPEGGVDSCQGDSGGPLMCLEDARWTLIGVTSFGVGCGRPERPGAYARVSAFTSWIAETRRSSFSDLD

In the case of SBTI (from UniProt P01070 25-205), the Inhibition (%) of GD4K-βNA hydrolysis at 0.1 mg/ml in assay [1] and in assay [2] was 99% throughout.
